# Measurements taken from US20240033374A1, “Nano-structural Protein Degradation Tool, Use, and Preparation Method thereof, and Lipid-based Protein Degradation Tool, Use, and Preparation Method thereof” (HENAN UNIVERSITY, priority 2022, published 2024).
# Legend:
# human glioma in situ = assay: In situ glioma model, immunohistochemical detection of EGFR and PCNA; format: in vivo, nude mice; conditions: 10 mg/kg intravenous, every other day, 5 times
# Description: The administration was performed once every other day, 5 times in total, and after the administration cycle was completed, the mice were euthanized the next day, the brain tissues were taken and paraffin-embedded, and sectioned for immunohistochemical staining to study the protein degradation effect of NTZ on target protein EGFR and the tumor inhibition by detecting the tumor proliferation marker PCNA.
# EGFR [1] = target: T1, EGFR (Homo sapiens, UniProt P00533); assay: EGFR protein degradation in cells, protein electrophoresis (Western blot); format: cell-based
# T1 construct: can degrade the membrane receptor protein EGFR in various tumor cells; endogenous in cells; host or cells: MDA-MB-231 (M231), HeLa, U87
# Description: In the above, the NP group refers to nanoparticles not linked with the POI recognition groups in the example. In all the examples involving multi-concentration test, the control group for POI recognition group and the control group for lipid hybrid substance were treated with the molar concentration equal to the highest concentration in concentration test group. All the protein electropherograms take GAPDH or VIN (vinculin) as internal reference.
# [2] = Dynamic light scattering particle size and PDI; format: physicochemical
# Text: FIG. 68 is a structural schematic diagram of CTX-RBCmD. FIG. 69 is a diagram of DLS particle size distribution results.
# EGFR [3] = target: T1, EGFR; assay: EGFR on cell surfaces, immunofluorescent staining and confocal microscopy, M231 cells; format: cell-based; conditions: 500 nM antibodies, 24 hours
# [4] = Acute toxicity, blood parameters of liver and kidney function after a single administration; format: in vivo, mice; conditions: 10 mg/kg via tail vein, blood 12 hours after injection
# Description: In the present example, acute hepatotoxicity on mice by the NTZ-NP nano-structural protein degradation tool was studied. The nanoparticles, the solvent PBS control, NTZ antibodies of equal molar quantity, and NP of equal molar quantity without NTZ antibodies (10 mg/kg) were injected into mice via tail vein, blood was taken 12 hours after injection, and blood biochemical indicators were detected by a kit.
# HepG2 cells = assay: CCK8 cell viability assay; format: cell-based, human; conditions: 500 nM antibody, 24 h, p<0.001
# EGFP-labeled fused EGFR = target: T2, EGFP-labeled fused EGFR (Homo sapiens, UniProt P00533); assay: Live-cell confocal imaging of EGFP-fused EGFR in M231 cells; format: cell-based; conditions: M231 living cells, fixed visual field, photographed continuously
# T2 construct: expressed in transfected cells; host or cells: MDA-MB-231 (M231)
# β-amyloid 1-42 oligomer = target: T3, β-amyloid 1-42 oligomer (Homo sapiens, UniProt P05067); assay: Endocytosis of FITC-labeled β-amyloid 1-42 oligomer in human glial cells, confocal microscope; format: cell-based; conditions: 10 μM, 12 hours
# T3 construct: oligomers prepared from FITC green dye-labeled β-amyloid 1-42 polypeptide; host or cells: exogenous peptide added to human glial cells
# Description: 1 μM FITC fluorescein-labeled 5 μM β-amyloid oligomer and AB-NP were co-cultured in human glial cells for 4 hours, subsequently extracellular solution was washed away with PBS. […] The lysosome theoretically can degrade β-amyloid so as to eliminate toxicity brought about by β-amyloid extracellular accumulation. (3) β-amyloid hijack experiment: 10 μM oligomers prepared from FITC green dye-labeled 3-amyloid 1-42 peptide and 10 μM AV45-NP were co-incubated, then, the treated residue not entering the cell was washed off with PBS, followed by confocal microscope imaging, to detect green fluorescence of the β-amyloid 1-42 oligomers. […] The lysosomal dye lysoTracker was used to label the lysosome. […] 10 μM AV-45 or AV45-NP and 10 μM FITC green fluorescence dye-labeled β-amyloid oligomers were co-incubated in culture medium and treated human glial cells for 12 hours.
# PD-1 receptor protein = target: T4, PD-1 receptor protein (Homo sapiens, UniProt Q15116); assay: PD-1 expression in JURKAT cells overexpressing PD-1, protein electrophoresis; format: cell-based; conditions: JURKAT cells overexpressing PD-1, 500 nM, 24 h
# T4 construct: expressed in transfected cells; host or cells: JURKAT cells overexpressing PD-1
# [5] = M231 cells, 500 nM, fresh medium without treatment from the 24th hour
# Description for M231 tumor: Administration every other day (15 mg/kg) was started on day 10 of inoculation of M231 tumor in female nude mice at 6-8 weeks of age, and a volume of the tumor (tumor length: a and width: b, volume calculation formula: ½ab^2) of the mice and body weight change were continuously monitored. After two weeks of administration, 7 times in total, the mice were euthanized the next day after the last administration, tumor tissues were isolated, and the tumor tissues were subjected to protein electrophoresis and immunofluorescence detection.
# In the above, after being isolated, the tumor tissues were paraffin-embedded and sectioned, followed by immunofluorescence staining, and immunofluorescence staining results of EGFR and apoptotic core signal cleaved caspase-3 were detected.
# T3 sequence (P05067 672-713 limits assumed): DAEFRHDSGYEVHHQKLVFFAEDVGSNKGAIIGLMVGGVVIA
# T4 sequence (Q15116 25-288): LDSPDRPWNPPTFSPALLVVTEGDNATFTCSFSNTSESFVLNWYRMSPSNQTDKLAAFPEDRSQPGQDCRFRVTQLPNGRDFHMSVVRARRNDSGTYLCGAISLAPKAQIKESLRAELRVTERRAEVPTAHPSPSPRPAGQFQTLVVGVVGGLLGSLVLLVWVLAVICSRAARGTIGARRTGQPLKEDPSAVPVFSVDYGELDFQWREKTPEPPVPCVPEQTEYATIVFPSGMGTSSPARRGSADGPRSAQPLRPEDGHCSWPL
molecule,measurement,setting,value
ANG/NTZ-NP: NTZ-PEG-DSPE plus 20% Angiopep2-PEG-DSPE self-assembled with PLGA,EGFR in brain tumor (immunohistochemistry),human glioma in situ,solvent PBS control group and the NTZ-NP group are stronger than the ANG/NTZ-NP group
same,proliferation marker PCNA in brain tumor (immunohistochemistry),human glioma in situ,solvent PBS control group and the NTZ-NP group are stronger than the ANG/NTZ-NP group
NTZ-LNP2: NTZ-PEG-DMG with HSPC + cholesterol + DOTAP lipid nanoparticle,EGFR protein expression (protein electrophoresis),"EGFR [1]; M231 cells, 24 h, concentration not given",can effectively degrade the target protein EGFR
NTZ-lipoP: NTZ-PEG-DSPE on HSPC/cholesterol lipid membrane wrapping PLGA nanoparticles,SIZE (DLS particle size),[2],257 ± 7.0
"NTZ-NP: PLGA nanoparticle core, PEG-DSPE intermediate layer, NTZ antibodies at periphery",particle size (dynamic light scattering),[2],about 150 nm
same,EGFR expression on cell surfaces (immunofluorescence),EGFR [3],remarkably decreased
same,EGFR expression (protein electrophoresis),"EGFR [1]; HeLa cells, 500 nM, 24 h",obvious decreases in EGFR expression
same,EGFR protein level / expression (protein electrophoresis),"EGFR [1]; M231 cells, 500 nM, 24 h",obvious decreases in EGFR expression
same,EGFR gradually recovered after,EGFR [1]; [5],> 72 h
same,optimal degradation time for a single treatment,EGFR [1]; [5],24 to 48 h
same,concentration at which EGFR is effectively degraded (as low as),"EGFR [1]; M231 cells, 24 h",10 nM
same,EGFR expression (protein electrophoresis),"EGFR [1]; U87 cells, 500 nM, 24 h",obvious decreases in EGFR expression
same,"blood parameters BUN, UA, CR, ALB, ALP, ALT, AST",[4],no obvious abnormality
same,cell proliferation (CCK8 cell viability),HepG2 cells,significantly inhibited
same,EGFR in brain tumor (immunohistochemistry),human glioma in situ,stronger than the ANG/NTZ-NP group
same,proliferation marker PCNA in brain tumor (immunohistochemistry),human glioma in situ,stronger than the ANG/NTZ-NP group
same,EGFR protein expression level in isolated tumor tissues (protein electrophoresis),"M231 tumor; 15 mg/kg every other day, 7 times, five mice, p<0.05",significantly down-regulated
same,tumor volume proliferation,"M231 tumor; 15 mg/kg every other day, 7 times, versus PBS, equal molar NTZ antibody and antibody-free nanoparticle groups",obviously inhibited
same,EGFR signal in tumor tissues (immunofluorescence staining),M231 tumor; after treatment completed,EGFR signal is reduced
same,apoptotic signal cleaved caspase-3 in tumor tissues (immunofluorescence staining),M231 tumor; after treatment completed,apoptotic signal rises
same,green fluorescence signal of EGFP-labeled fused EGFR,EGFP-labeled fused EGFR,gradually decreases over time
"CNc1ccc(/C=C/c2ccc(OCCOCCOCCF)nc2)cc1 [AV45, AV-45]",AV45 autofluorescence in cells (cell internalization),β-amyloid 1-42 oligomer,very weak
NTZ-PEGlipo: NTZ antibody coupled to NHS-PEG liposomes (HSPC + cholesterol),EGFR protein level / expression (protein electrophoresis),"EGFR [1]; M231 cells, 500 nM, 24 h",can effectively degrade the target protein EGFR
"CRLZ-NP: Camrelizumab (CRLZ), PEG-DSPE linker, PLGA nanoparticle (conjugate, chains of the INN, looked up, PEG-DSPE PLGA nanoparticle) VH: EVQLVESGGGLVQPGGSLRLSCAASGFTFSSYMMSWVRQAPGKGLEWVATISGGGANTYYPDSVKGRFTISRDNAKNSLYLQMNSLRAEDTAVYYCARQLYYFDYWGQGTTVTVSS VL: DIQMTQSPSSLSASVGDRVTITCLASQTIGTWLTWYQQKPGKAPKLLIYTATSLADGVPSRFSGSGSGTDFTLTISSLQPEDFATYYCQQVYSIPWTFGGGTKVEIK",expression of PD-1 receptor protein,PD-1 receptor protein,obviously reduced
